This test addresses S-chain of the optimized human DROP-CAR containing dmLD3 (human).

As for “R-domain of the anti-PSMA DROP-CAR (J591 scFv fused to Bcl-2)”, the percent of anti-PSMA DROP-CAR Jurkat cells still bound to a PC3-PIP monolayer at 1,000 pN (z-Movi acoustic force ramp), with venetoclax, partially detached cells counted as bound is 30%; the percent of anti-PSMA DROP-CAR Jurkat cells still bound to a PC3-PIP monolayer at 1,000 pN (z-Movi acoustic force ramp), with venetoclax, partially detached cells counted as dissociated was less than 10%; the percent of anti-PSMA DROP-CAR Jurkat cells still bound to a PC3-PIP monolayer at 1,000 pN (z-Movi acoustic force ramp), without venetoclax, partially detached cells counted as bound stood at 64%; the percent of anti-PSMA DROP-CAR Jurkat cells still bound to a PC3-PIP monolayer at 1,000 pN (z-Movi acoustic force ramp), without venetoclax, partially detached cells counted as dissociated came to 30%.

These data come from PMC13612217.
